Experimental findings from patent US20070243571A1, “Method for Measurement of Activity of Homocysteinethiolactone Hydrolyzing Enzyme” (priority 2004, published 2007) are described below.

The target of data set [1] is T1, Human butyrylcholinesterase (Homo sapiens, UniProt P06276).
T1 construct: purchased Boehringer 348643
The experiment in a line: Hydrolysis of substrate by purified human cholinesterase. The class given is biochemical. Conditions: 2.0 U/ml human butyrylcholinesterase solution as sample. Here is the method:
Human butyrylcholinesterase (348643, Boehringer) was dissolved in purified water to prepare a 2.0 U/ml solution.
(§1) Following the above parameters, purified water, 15 μl of a sample and 200 μl of reagent 1(A) or 1(B) or 1(C) or 1(D) was dispensed and mixed, and, after a certain length of time at a constant temperature (37° C., 5 min), 50 μl of reagent 2 was added and mixed to allow reaction to start. When reagent 2 was added to the mixture of the fraction containing serum, plasma, albumin or HDL and reagent 1(A), 1(C) or 1(D), increase in absorbance was detected which was due to the reaction of the SH-group detection reagent with DL-homocysteine, which has a free SH group, formed by hydrolysis of HTL.
(§2) Following the above parameters, 15 μl of a sample and 200 μl of reagent 1(A) or 1(B) or 1(C) or 1(D) was dispensed and mixed, and, after a certain length of time at a constant temperature (37° C., 5 min), 50 μl of reagent 2 was added and mixed to allow reaction to start. When reagent 2 was added to the mixture of the fraction containing serum, plasma, cholinesterase or HDL and reagent 1(A), increase in absorbance was detected which was due to the reaction of the SH-group detection reagent with 4-mercaptobutyric acid, which has a free SH group, formed by of HTL hydrolyzing enzyme.

A short description of data set [2]: Autolysis of the substrate in reagent-blank (purified water as sample). The class given is physicochemical. The conditions noted are these: HTL, MOPS buffer pH 7.8, purified water as sample. Here is the method: as §1
As evident from FIG. 2, increase in absorbance is suppressed when calcium ion is blocked by EDTA.
as §2
As evident from FIG. 4, increase in absorbance is suppressed when calcium ion is not present. […]

The next data set concerns the target cholinesterase (Homo sapiens, UniProt P06276). Conditions: Nescoat ChE V-2 according to the package insert. Here is the method:
Cholinesterase activity was measured with the above-mentioned samples and unprepared serum. Measurement of cholinesterase activity was carried out using Nescoat ChE V-2 (Alfresa Pharma Coporation) according to the package insert.

Data set [3] deals with HTL hydrolyzing enzyme. Nature of the data set: Measurement of hydrolyzing enzyme activity for TBL (DTNB rate assay, H-7170 analyzer). The class given is biochemical, human. Conditions: substrate TBL. Here is the method: Hydrolyzing enzyme activity for TBL was measured with above-mentioned samples and unprepared serum.
Reagent 1(A): SH-group detection solution; 0.2 M MOPS buffer containing 0.5 mM CaCl2 and 1.0 mM DTNB (pH 7.2).
Reagent 1(B): SH-group detection solution; 0.2 M MOPS buffer containing 2 mM EDTA and 1.0 mM DTNB (pH 7.2).
Reagent 1(C): SH-group detection solution; 0.2 M MOPS buffer containing 0.5 mM CaCl2, 0.1 mM physostigmine sulfate and 1.0 mM DTNB (pH 7.2).
Reagent 1(D): SH-group detection solution; 0.2 M MOPS buffer containing 0.5 mM CaCl2, 0.1 mM neostigmine bromide and 1.0 mM DTNB (pH 7.2).
Reagent 2: substrate solution; aqueous solution containing 125 mM TBL (Aldrich).
For measurement of hydrolyzing enzyme activity TBL, H-7170 automatic analyzer (Hitachi, Ltd.) was used. Parameters for measurement were as follows.
Following the above parameters, 15 μl of a sample and 200 μl of reagent 1(A) or 1(B) or 1(C) or 1(D) was dispensed and mixed, and, after a certain length of time at a constant temperature (37° C., 5 min), 50 μl of reagent 2 was added and mixed to allow reaction to start.
The activity value of HTL hydrolyzing enzyme for TBL in each sample was calculated based on: the change in absorbance per unit of time (1 min) (ΔE) from 2-minute up to 4-minute time points after the addition of the substrate (reagent 2), the molecular extinction coefficient of 5-thio-2-nitrobenzoic acid at the wavelength of 480 nm, ε=2509, and the molecular extinction coefficient of the compound at the wavelength of 546 nm, ε=78.

Data set [4] relates to HTL hydrolyzing enzyme. The experiment in a line: Measurement of hydrolyzing enzyme activity for HTL (DTNB rate assay, H-7170 analyzer). The conditions noted are these: substrate DL-HTL. Type of data set: biochemical, human. Here is the method:
Hydrolyzing enzyme activity for HTL was measured with purified water and above-mentioned samples.
Reagent 1(A): SH-group detection solution; 0.2 M MOPS buffer containing 0.5 mM CaCl2 and 1.0 mM DTNB (pH 7.8).
Reagent 1(B): SH-group detection solution; 0.2 M MOPS buffer containing 2 mM EDTA and 1.0 mM DTNB (pH 7.8).
Reagent 1(C): SH-group detection solution; 0.2 M MOPS buffer containing 0.5 mM CaCl2, 0.1 mM physostigmine sulfate and 1.0 mM DTNB (pH 7.8).
Reagent 1(D): SH-group detection solution; 0.2 M MOPS buffer containing 0.5 mM CaCl2, 0.1 mM neostigmine bromide and 1.0 mM DTNB (pH 7.8).
Reagent 2: substrate solution; aqueous solution containing 125 mM DL-HTL (Tokyo Chemical Industry Co., Ltd).
For measurement of HTL hydrolyzing enzyme activity, H-7170 automatic analyzer (Hitachi, Ltd.) was used. Parameters for measurement were as follows.
Following the above parameters, purified water, 15 μl of a sample and 200 μl of reagent 1(A) or 1(B) or 1(C) or 1(D) was dispensed and mixed, and, after a certain length of time at a constant temperature (37° C., 5 min), 50 μl of reagent 2 was added and mixed to allow reaction to start.
The activity value of HTL hydrolyzing enzyme in each sample was calculated based on: the change in absorbance per unit of time (1 min) (ΔE) from 2-minute up to 4-minute time points after the addition of the substrate (reagent 2), the molecular extinction coefficient of 5-thio-2-nitrobenzoic acid at the wavelength of 480 nm, ε=2509, and the molecular extinction coefficient of the compound at the wavelength of 546 nm, ε=78.

Where two headings read alike, the source gives them in different places.

On to `NC1CCSC1=O` (stereo not drawn) [HTL, homocysteinethiolactone], for which, in data set [1], the “hydrolysis by purified human cholinesterase” value was “not hydrolyzed”. Moreover, the “stability of substrate in the reaction solution (autolysis, increase in absorbance of reagent-blank)” value in data set [2] is reported as “unstable in the reaction solution”.

B1: Cholinesterase: Human butyrylcholinesterase (348643, Boehringer) dissolved in purified water, 2.0 U/ml solution (protein, UniProt P06276 29-602, looked up)
Cholinesterase: EDDIIIATKNGKVRGMNLTVFGGTVTAFLGIPYAQPPLGRLRFKKPQSLTKWSDIWNATKYANSCCQNIDQSFPGFHGSEMWNPNTDLSEDCLYLNVWIPAPKPKNATVLIWIYGGGFQTGTSSLHVYDGKFLARVERVIVVSMNYRVGALGFLALPGNPEAPGNMGLFDQQLALQWVQKNIAAFGGNPKSVTLFGESAGAASVSLHLLSPGSHSLFTRAILQSGSFNAPWAVTSLYEARNRTLNLAKLTGCSRENETEIIKCLRNKDPQEILLNEAFVVPYGTPLSVNFGPTVDGDFLTDMPDILLELGQFKKTQILVGVNKDEGTAFLVYGAPGFSKDNNSIITRKEFQEGLKIFFPGVSEFGKESILFHYTDWVDDQRPENYREALGDVVGDYNFICPALEFTKKFSEWGNNAFFYYFEHRSSKLPWPEWMGVMHGYEIEFVFGLPLERRDNYTKAEEILSRSIVKRWANFAKYGNPNETQNNSTSWPVFKSTEQKYLTLNTESTRIMTKLRAQQCRFWTSFFPKVLEMTGNIDEAEWEWKAGFHRWNNYMMDWKNQFNDYTSKKESCVGL
In the case of B1, the Cholinesterase activity with cholinesterase is reported as 15392; in the data set with cholinesterase (listed as human cholinesterase), “observed”. Further, in the data set on HTL hydrolyzing enzyme [3] (Reagent 1(A): 0.5 mM CaCl2, pH 7.2, 37° C., no inhibitor), the “activity value of HTL hydrolyzing enzyme for TBL, No addition” value worked out at 403. The “activity value of HTL hydrolyzing enzyme for TBL, EDTA.2Na” value with HTL hydrolyzing enzyme [3] (Reagent 1(B): 2 mM EDTA, pH 7.2, 37° C.) amounted to 399. Also, the “activity value of HTL hydrolyzing enzyme for TBL, Physostigmine sulfate” value with HTL hydrolyzing enzyme [3] (Reagent 1(C): 0.5 mM CaCl2, 0.1 mM physostigmine sulfate, pH 7.2, 37° C.) amounted to 1. Moreover, the “activity value of HTL hydrolyzing enzyme for TBL, Neostigmine bromide” value in the data set with HTL hydrolyzing enzyme [3] (Reagent 1(D): 0.5 mM CaCl2, 0.1 mM neostigmine bromide, pH 7.2, 37° C.) stood at 2. Further, the “activity value of HTL hydrolyzing enzyme, No addition” value in the data set on HTL hydrolyzing enzyme [4] (Reagent 1(A): 0.5 mM CaCl2, pH 7.8, 37° C., no inhibitor) is 8. Moreover, the “activity value of HTL hydrolyzing enzyme, EDTA.2Na” value in the data set on HTL hydrolyzing enzyme [4] (Reagent 1(B): 2 mM EDTA, pH 7.8, 37° C.) is on record as 6. The “activity value of HTL hydrolyzing enzyme, Physostigmine sulfate” value in the data set with HTL hydrolyzing enzyme [4] (Reagent 1(C): 0.5 mM CaCl2, 0.1 mM physostigmine sulfate, pH 7.8, 37° C.) was −1. For the same molecule, the “activity value of HTL hydrolyzing enzyme, Neostigmine bromide” value in the data set with HTL hydrolyzing enzyme [4] (Reagent 1(D): 0.5 mM CaCl2, 0.1 mM neostigmine bromide, pH 7.8, 37° C.) is given as −2.
